We go through four variants from IntAct's records for PubMed 15618422.

B1: BTB/POZ and MATH domain-containing protein 1 (Arabidopsis thaliana (Mouse-ear cress)), Q8L765 (parent)
chain: MGTTRVCSEVSSGSSKSLSQSLTVSTSTTETVNGFHEFKICGYSLAKGVGVGKYVASDTFMVGGYSWAIYFYPDGKSPEDNSSYVSLFIALASEGADVRALFELTLVDQSGNGKHKVHSHFGRALDSGPYTLKYRGSMWGYKRFFRRSSLESSDYLKENSLLVRCRVGVVKSVTEGPRYYNIPVPVSNLGQQLGNLLESGKGCDVVFQVDGETFNAHKLVLATRSPVFNAQLFGPLGDRNTKCITIEDMEAPIFKVLLHFIYWDELPDMQELIGTDSTLASTLVAQHLLAAADRYALERLKAICESKLCEGVAINTVATTLALAEQHHCLQLKAVCLKFVALPENLKAVMQTDGFDYLKESCPSLLTELLQYVARLSEHSVIVSGHRKEIFADGCDASGRRVKPRLH
partner: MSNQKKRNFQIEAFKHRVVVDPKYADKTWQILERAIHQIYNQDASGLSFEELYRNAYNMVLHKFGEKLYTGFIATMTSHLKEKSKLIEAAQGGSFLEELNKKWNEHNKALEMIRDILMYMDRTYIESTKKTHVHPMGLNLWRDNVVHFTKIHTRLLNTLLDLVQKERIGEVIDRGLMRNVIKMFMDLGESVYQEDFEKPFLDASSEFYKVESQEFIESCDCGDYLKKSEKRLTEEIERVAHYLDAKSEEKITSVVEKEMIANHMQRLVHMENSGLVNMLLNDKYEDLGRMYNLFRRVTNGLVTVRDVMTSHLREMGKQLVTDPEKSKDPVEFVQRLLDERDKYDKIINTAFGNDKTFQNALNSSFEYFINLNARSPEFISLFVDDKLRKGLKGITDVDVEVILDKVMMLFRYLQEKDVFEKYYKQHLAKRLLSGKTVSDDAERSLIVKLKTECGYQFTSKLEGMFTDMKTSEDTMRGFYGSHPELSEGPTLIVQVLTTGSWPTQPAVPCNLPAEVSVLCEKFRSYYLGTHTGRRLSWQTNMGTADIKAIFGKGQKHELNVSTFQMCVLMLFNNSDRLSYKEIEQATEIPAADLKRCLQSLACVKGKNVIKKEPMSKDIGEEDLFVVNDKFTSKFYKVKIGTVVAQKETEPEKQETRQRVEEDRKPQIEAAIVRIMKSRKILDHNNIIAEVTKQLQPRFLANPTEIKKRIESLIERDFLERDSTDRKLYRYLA
B2: Cullin-3A (Arabidopsis thaliana (Mouse-ear cress)), Q9ZVH4 (parent)
chain: B1 partner
partner: B1 chain

One assay covers variants of B1. The settings on record: with cul3a_arath CUL3A, Q9ZVH4.
On to MGTTRVCSEVSSGSSKSLSQSLTVSTSTTETVNGFHEFKICGYSLAKGVGVGKYVASDTFMVGGYSWAIYFYPDGKSPEDNSSYVSLFIALASEGADVRALFELTLVDQSGNGKHKVHSHFGRALDSGPYTLKYRGSMWGYKRFFRRSSLESSDYLKENSLLVRCRVGVVKSVTEGPRYYNIPVPVSNLGQQLGNLLESGKGCDVVFQVDGETFNAHKLVLATRSPVFNAQLFGPLGDRNTKCITIEDMEAPIFKVLLHFIYWDELPDMQELIGTDSTLASTLVAQHLLAAADRAALERLKAICESKLCEGVAINTVATTLALAEQHHCLQLKAVCLKFVALPENLKAVMQTDGFDYLKESCPSLLTELLQYVARLSEHSVIVSGHRKEIFADGCDASGRRVKPRLH [Y295A], for which the “effect of a mutation on the interaction” value is given as “decreasing interaction”.

Take MGTTRVCSEVSSGSSKSLSQSLTVSTSTTETVNGFHEFKICGYSLAKGVGVGKYVASDTFMVGGYSWAIYFYPDGKSPEDNSSYVSLFIALASEGADVRALFELTLVDQSGNGKHKVHSHFGRALDSGPYTLKYRGSMWGYKRFFRRSSLESSDYLKENSLLVRCRVGVVKSVTEGPRYYNIPVPVSNLGQQLGNLLESGKGCDVVFQVDGETFNAHKLVLATRSPVFNAQLFGPLGDRNTKCITIEDMEAPIFKVLLHFIYWDELPDMQELIGTDSTLASTLVAQHLLAAAARYALERLKAICESKLCEGVAINTVATTLALAEQHHCLQLKAVCLKFVALPENLKAVMQTDGFDYLKESCPSLLTELLQYVARLSEHSVIVSGHRKEIFADGCDASGRRVKPRLH [D293A]: the “effect of a mutation on the interaction” value is given as “decreasing interaction”.

On to MGTTRVCSEVSSGSSKSLSQSLTVSTSTTETVNGFHEFKICGYSLAKGVGVGKYVASDTFMVGGYSWAIYFYPDGKSPEDNSSYVSLFIALASEGADVRALFELTLVDQSGNGKHKVHSHFGRALDSGPYTLKYRGSMWGYKRFFRRSSLESSDYLKENSLLVRCRVGVVKSVTEGPRYYNIPVPVSNLGQQLGNLLESGKGCAVVFQVDGETFNAHKLVLATRSPVFNAQLFGPLGDRNTKCITIEDMEAPIFKVLLHFIYWDELPDMQELIGTDSTLASTLVAQHLLAAADRYALERLKAICESKLCEGVAINTVATTLALAEQHHCLQLKAVCLKFVALPENLKAVMQTDGFDYLKESCPSLLTELLQYVARLSEHSVIVSGHRKEIFADGCDASGRRVKPRLH [D204A], for which the “effect of a mutation on the interaction” value was “decreasing interaction”.

The variants in another assay derive from B2. The settings on record: with bpm1_arath BPM1, Q8L765.
On to S48A;F49A, for which the “effect of a mutation on the interaction” value is given as “decreasing interaction”.
